Assay [1] deals with T1, GPR64 protein (SEQ ID NO:2) (UniProt Q8IZP9 38-1017).
T1 chain: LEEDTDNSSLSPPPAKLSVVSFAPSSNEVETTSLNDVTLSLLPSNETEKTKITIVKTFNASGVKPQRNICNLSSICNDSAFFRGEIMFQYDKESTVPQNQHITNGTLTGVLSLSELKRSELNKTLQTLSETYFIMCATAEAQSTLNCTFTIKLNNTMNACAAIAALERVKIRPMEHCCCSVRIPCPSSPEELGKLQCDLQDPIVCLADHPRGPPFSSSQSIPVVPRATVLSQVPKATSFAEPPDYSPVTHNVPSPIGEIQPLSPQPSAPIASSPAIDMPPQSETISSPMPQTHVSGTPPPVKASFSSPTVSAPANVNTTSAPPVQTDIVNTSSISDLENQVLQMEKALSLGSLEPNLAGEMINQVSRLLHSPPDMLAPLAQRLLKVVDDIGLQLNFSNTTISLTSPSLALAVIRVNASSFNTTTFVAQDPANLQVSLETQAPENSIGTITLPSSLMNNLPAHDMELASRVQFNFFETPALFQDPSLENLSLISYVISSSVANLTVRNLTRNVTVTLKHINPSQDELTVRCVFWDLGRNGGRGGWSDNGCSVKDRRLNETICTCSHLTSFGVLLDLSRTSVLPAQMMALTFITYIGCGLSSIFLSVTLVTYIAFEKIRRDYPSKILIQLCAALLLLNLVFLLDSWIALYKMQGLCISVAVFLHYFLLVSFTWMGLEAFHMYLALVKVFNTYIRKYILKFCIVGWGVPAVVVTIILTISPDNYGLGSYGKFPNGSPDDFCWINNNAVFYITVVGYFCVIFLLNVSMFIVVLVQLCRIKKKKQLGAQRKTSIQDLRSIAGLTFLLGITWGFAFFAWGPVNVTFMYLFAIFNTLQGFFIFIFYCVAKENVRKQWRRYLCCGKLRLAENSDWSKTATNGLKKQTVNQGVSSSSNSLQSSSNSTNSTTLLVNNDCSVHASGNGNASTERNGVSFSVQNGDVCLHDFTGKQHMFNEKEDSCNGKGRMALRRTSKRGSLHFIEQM
Put plainly: FACS.

Assay [2] deals with T2, GPR64 protein (SEQ ID NO:2) (human, UniProt Q8IZP9 38-1017).
T2 construct: Endogenous GPR64 on human tumor cells (NCI-H460) or in tissue sections; also called Ov1; HE6
Put plainly: competitive FACS on H460 cells, confirmed by Biacore. The method, then: Epitope mapping was performed by competitive FACS assay. Briefly, H460 cells were incubated with 25 ug/ml unlabeled antibody for 1 hr on ice, at which time various amounts of FITC labeled antibody was added. After 30 additional minutes, cells were washed one time and fluorescence was measured by flow cytometry. All data was confirmed by Biacore.
For orientation: In SPR one partner is held on a chip, and binding of the other changes the refractive index at the surface.

In assay [3] the target is T3, human GPR64-Fc fusion protein (human, UniProt Q8IZP9 38-591).
T3 construct: Immunogen, and the analyte in the Biacore kinetics
Put plainly: affinity screen of Example 4 (Biacore/FACS); form of the target not restated.

B1: GPR64-18 (antibody, V domains shown)
VH: QVSLKESGPGILQPSQTLSLTCSFSGFSLSTSGMGVSWIRQPSGKGLEWLAHIYWDDDKRYNPSLKSRLTISKDTSSNLVFLKITSVDTADTATYYCARREVRRDYYAMDYWGQGTSVTVSS
VL: SIVMTQTPKFLLVSAGDRITIACRASQSVSNDVAWYQQKPGQSPKLLINYTSNRYTGVPDRFTGSGYGTDFTFTISTVQAEDLAVYFCQQAYSSPWTFGGGTKLEIK
notes: Mouse monoclonal antibody raised against GPR64-Fc; also called GPR64-18 antibody
As usually defined, the EC50 is the midpoint of the concentration-response curve. Higher therefore signals weaker potency. In turn, B1 came in with an EC50 in assay [1] of roughly 4 nM. Further, the binding result in assay [2] and in assay [3] was “binds” in each case.

Values taken from patent publication US20040197325A1 (PDL BIOPHARMA, published 2004).
